Experimental findings from PMC4041446, “Eukaryotic and archaeal TBP and TFB/TF(II)B follow different promoter DNA bending pathways” are described below.

Data set [1] deals with T1, MjTBP;MjTFB (Methanocaldococcus jannaschii;Methanocaldococcus jannaschii) (UniProt Q57930+Q58192+Q58192).
T1 sequence 1: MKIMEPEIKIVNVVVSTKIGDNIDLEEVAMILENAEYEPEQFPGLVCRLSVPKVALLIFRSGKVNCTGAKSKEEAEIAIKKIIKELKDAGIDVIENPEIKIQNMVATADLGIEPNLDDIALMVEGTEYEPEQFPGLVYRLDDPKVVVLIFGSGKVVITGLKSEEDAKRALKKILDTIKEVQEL
T1 sequence 2: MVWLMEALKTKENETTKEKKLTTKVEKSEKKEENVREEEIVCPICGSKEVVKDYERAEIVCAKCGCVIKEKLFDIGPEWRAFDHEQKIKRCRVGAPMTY
T1 sequence 3: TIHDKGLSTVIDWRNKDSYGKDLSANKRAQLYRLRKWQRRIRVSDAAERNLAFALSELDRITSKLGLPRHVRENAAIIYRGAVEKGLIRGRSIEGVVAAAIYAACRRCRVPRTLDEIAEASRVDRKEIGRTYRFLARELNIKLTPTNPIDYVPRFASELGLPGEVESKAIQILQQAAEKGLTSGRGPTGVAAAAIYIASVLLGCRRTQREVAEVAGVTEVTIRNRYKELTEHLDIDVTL
Kind of data set: smFRET. Conditions: MjTBP + MjTFB; smFRET: N70 buffer (Mj) or N65 buffer (Sa), compositions in Table 1 not in the material; Sa EMSA: 10 mM MOPS pH 6.5, 180 mM NaCl, 20 mM KOAc, 11 mM MgCl2, 10% …. Background: Mobility shift assays separate free from complexed probe on a gel.

The target in data set [2] is SaTBP;SaTFB (TFB1) (Sulfolobus acidocaldarius;Sulfolobus acidocaldarius) (UniProt Q9UWN7). Kind of data set: smFRET. Conditions: smFRET: N70 buffer (Mj) or N65 buffer (Sa), compositions in Table 1 not in the material, Sa EMSA: 10 mM MOPS pH 6.5, 180 mM NaCl, 20 mM KOAc, 11 mM MgCl2, 10% ….
Data set [3] shares this target. Kind of data set: smFRET titration (confocal). Conditions: smFRET: N70 buffer (Mj) or N65 buffer (Sa), compositions in Table 1 not in the material, Sa EMSA: 10 mM MOPS pH 6.5, 180 mM NaCl, 20 mM KOAc, 11 mM MgCl2, 10% ….
Data set [4] concerns the target T2, ScTBP (Saccharomyces cerevisiae, UniProt P13393 1-240).
T2 sequence: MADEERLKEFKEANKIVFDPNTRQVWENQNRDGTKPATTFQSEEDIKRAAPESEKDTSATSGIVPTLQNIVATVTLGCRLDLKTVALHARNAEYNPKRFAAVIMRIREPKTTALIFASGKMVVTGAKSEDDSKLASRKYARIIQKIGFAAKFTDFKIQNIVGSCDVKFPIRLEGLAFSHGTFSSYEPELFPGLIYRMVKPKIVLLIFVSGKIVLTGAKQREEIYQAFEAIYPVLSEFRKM
Put plainly: smFRET titration (confocal); smFRET: N70 buffer (Mj) or N65 buffer (Sa), compositions in Table 1 not in the material; Sa EMSA: 10 mM MOPS pH 6.5, 180 mM NaCl, 20 mM KOAc, 11 mM MgCl2, 10% glycerol, 5 mM DTT, 1 ug BSA, 100 ug/ml heparin, 65 C 5 min. Particulars: protein: recombinant; label: donor and ATTO647n acceptor.

Data set [5] concerns the target T3, ScTBP;ScTF(II)B (Saccharomyces cerevisiae;Saccharomyces …, UniProt P13393;P29055 1-240;1-345, |).
T3 sequence 1: T2 sequence
T3 sequence 2: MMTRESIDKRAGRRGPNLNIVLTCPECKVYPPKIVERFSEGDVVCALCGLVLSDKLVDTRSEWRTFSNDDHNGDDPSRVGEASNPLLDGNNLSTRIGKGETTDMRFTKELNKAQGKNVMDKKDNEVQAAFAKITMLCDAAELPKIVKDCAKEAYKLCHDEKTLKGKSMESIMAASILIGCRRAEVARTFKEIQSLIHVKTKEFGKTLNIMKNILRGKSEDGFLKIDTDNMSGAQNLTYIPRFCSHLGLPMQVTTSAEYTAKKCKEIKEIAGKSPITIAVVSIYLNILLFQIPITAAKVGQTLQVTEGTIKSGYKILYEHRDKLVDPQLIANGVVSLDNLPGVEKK
Put plainly: smFRET; TF(II)B stabilizes fully bent state; smFRET: N70 buffer (Mj) or N65 buffer (Sa), compositions in Table 1 not in the material; Sa EMSA: 10 mM MOPS pH 6.5, 180 mM NaCl, 20 mM KOAc, 11 mM MgCl2, 10% glycerol, 5 mM DTT, 1 ug BSA, 100 ug/ml heparin, 65 C 5 min. Conditions: protein: recombinant;recombinant; tags: ;; copies: 1;1; label: donor and ATTO647n acceptor.

Data set [6] addresses T4, MjTBP (Methanocaldococcus jannaschii, UniProt Q57930 1-183).
T4 sequence: T1 sequence 1
Kind of data set: smFRET titration (confocal); smFRET: N70 buffer (Mj) or N65 buffer (Sa), compositions in Table 1 not in the material; Sa EMSA: 10 mM MOPS pH 6.5, 180 mM NaCl, 20 mM KOAc, 11 mM MgCl2, 10% glycerol, 5 mM DTT, 1 ug BSA, 100 ug/ml heparin, 65 C 5 min. Particulars: protein: recombinant; label: Cy3B or ATTO532 donor, ATTO647n acceptor.

SaTBP;SaTFB (TFB1) (Sulfolobus acidocaldarius;Sulfolobus acidocaldarius), sequence (Q9UWN7 whole entry, looked up): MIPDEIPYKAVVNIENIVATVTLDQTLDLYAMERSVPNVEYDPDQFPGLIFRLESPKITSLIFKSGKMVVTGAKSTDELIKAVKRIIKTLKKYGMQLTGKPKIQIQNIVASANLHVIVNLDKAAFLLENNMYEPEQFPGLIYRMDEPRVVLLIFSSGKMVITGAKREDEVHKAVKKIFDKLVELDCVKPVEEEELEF

Consider DNASSV-BRE, for which the binding signal (% high FRET population) in data set [1] was determined as 62; in data set [2] (SaTBP + SaTFB, main text says no second population), 29.
A word on the Kd: it is the equilibrium constant for the complex coming apart. Consider “CGGACCGAAAGCGCGACCATCGCCGGAGATTGGAGTAAAGTTTAAATACTG (double strand) [DNASSV (SSV T6 promoter)]”, for which the Kd in data set [3] (SaTBP titrated, SaTFB 3 uM (Fig S7) or 2 uM) was 930 nM; in data set [3] (SaTFB titrated, 14 uM SaTBP), 363 nM. The molecule also had a binding signal (% high FRET population) in data set [2] (6 uM SaTBP, 5 uM SaTFB) of 92.

B1: DNAH2B (H2B promoter) (dsDNA)
DNA 1: CTTCACCTTATTTGCATAAGCGATTCTATATAAAAGCGCCTCGCTCTACCCTGCTCACGCTGTTTTTCCTTTTCGTTGGC
DNA 2: GCCAACGAAAAGGAAAAACAGCGTGAGCAGGGTAGAGCGAGGCGCTTTTATATAGAATCGCTTATGCAAATAAGGTGAAG
Regarding B1, the equilibrium dissociation constant (Kd) in data set [4] is 4.2 ± 1.2 nM. Further, the binding result in data set [5] is reported as “binds”.

B2: DNASSV (SSV T6 promoter) (dsDNA)
DNA 1: CGGACCGAAAGCGCGACCATCGCCGGAGATTGGAGTAAAGTTTAAATACTG
DNA 2: CAGTATTTAAACTTTACTCCAATCTCCGGCGATGGTCGCGCTTTCGGTCCG
Consider B2, for which, in data set [6], the dissociation constant (Kd) stood at 48 ± 6 nM.
